Results taken from doi:10.1101/2022.11.01.514793.

Columns and labels:
[1] = molecular target: AdgI (Variovorax); experiment: cryo-EM structure
[2] = molecular target: AdgH (Variovorax); experiment: SEC
[3] = molecular target: AdgH (Variovorax); experiment: cryo-EM structure

stoichiometry N [1] | stoichiometry N (AdgI:AdgH molar ratio) [2] | stoichiometry N [3] | Substance
3 | 1 | – | AdgI (enzyme)
– | – | 3 | AdgH (enzyme)
